{"source": "patent US20100069815A1", "about": "(ASAHI KASEI, published 2010)", "binders": {"B1": {"name": "Leu3a scFv-Normal (scFv)", "scFv": "MADIVLTQSPASLAVSLGQRATISCKASQSVDYDGDSYMNWYQQKPGQPPKLLIYAASNLESGIPARFTGSGSGTDFTLNIHPVEEEDTATYYCQQSYEDPPTFAGGTNLEIKGGGGSGGGGSGGGGSMVHLQESEPELVKPGASVKMSCKASGYTFTDYVINWVKQRTGQGLEWIGETYTGSGSSYYNEKFKDKATLTVDKASNIAYMQLSSLTSEDSAVYFCARRGKGTGFAFWGQGTLVTVSAAAADYKDDDDKGSSEQKLISEEDLGSRSTHHHHHHGSTK", "notes": "Covalently immobilized on GMA grafted nonwoven fabric in the assay"}}, "target": "T1, CD4 on CD4 positive cells in human peripheral blood (human, UniProt P01730 26-458)", "T1 construct": "whole, on cells; also called CD4 molecules", "test": "cell adsorption from human whole blood on covalently immobilized binder (GMA grafted nonwoven fabric column); flow cytometry; mean ± SD of 3", "procedure": "Immediately before the initiation of experiment, the PBS(−) solution was drained off by flowing air through the column. 5.0 ml of healthy human fresh blood containing ACD-A ([…] Laboratories) (blood:ACD-A=6.7:1) was fed from the inlet of the cell adsorber at a flow rate of 1.0 ml/min with a syringe pump. After discarding the first five drops, the treated blood was collected from the outlet of the column.\nThe CD4 positive cell removal rate at that time was calculated based on the change in the number of leukocytes measured by Coulter counter, and the change in the proportion of CD4 positive cells in the recovered cells measured by flow cytometry with use of a flow cytometer (FACS Calibur: Becton, Dickinson and Company). The cells were stained by the following manner. 100 μl of the collected blood was added with 10 μl of anti-CD4-PE solution (clone SK3, Becton, Dickinson and Company), 10 μl of anti-CD8-FITC solution (clone RPA-T8, Becton, Dickinson and Company), and 10 μl of anti-CD45-PerCP solution (Becton, Dickinson and Company). The resultant mixture was allowed to be stained at room temperature for 30 minutes, and then was added with 1 ml of FACS Lysing solution (Becton, Dickinson and Company) to effect hemolysis. CD45 positive cells were gated as leukocytes, and the proportion of CD4 positive cells therein was assayed."}
{"binder": "B1", "values": [{"measurement": "CD4 positive cell removal rate (%)", "value": 29.6, "unit": "%"}]}
